Measured values reported in US20140120095A1 (Boehringer Ingelheim, published 2014).

B1: VEGFDLLBII012 (bispecific antibody)
chain: EVQLVESGGGLVQTGDSLRLSCEVSGRTFSSYSMGWFRQAQGKEREFVVAISKGGYKYDSVSLEGRFTISKDNAKNTVYLQINSLKPEDTAVYYCASSRAYGSSRLRLADTYEYWGQGTQVTVSSGGGGSGGGGSGGGGCGGGGSGGGGSGGGGSGGGGSEVQLVESGGGLVQPGGSLRLSCAASGFTFGSYDMSWVRRSPGKGPEWVSSINSGGGSTYYADYVKGRFTISRDNAKNTLYLQMNSLKPEDTAVYYCAADRYIWARQGEYWGAYEYDYWGQGTQVTVSS
modifications: PEGylated at the Cys at position 15 of the 35 Gly-Ser linker
notes: VEGFBII23B04 - 35GS(Cys15) - DLLBII136C07
B2: VEGFDLLBII013 (bispecific antibody)
chain: EVQLVESGGGLVQTGDSLRLSCEVSGRTFSSYSMGWFRQAQGKEREFVVAISKGGYKYDSVSLEGRFTISKDNAKNTVYLQINSLKPEDTAVYYCASSRAYGSSRLRLADTYEYWGQGTQVTVSSGGGGSGGGGSGGGGCGGGGSGGGGSGGGGSGGGGSEVQLVESGGGLVQAGGSLRLSCAASGRTFSSYAMAWYRQAPGKEREYVAAIRWSGGTAYYADSVQGRFTISRDNAKNTVYLQMNSLKPEDTAVYYCANRAPDTRLAPYEYDHWGQGTQVTVSS
modifications: PEGylated at the Cys at position 15 of the 35 Gly-Ser linker
notes: VEGFBII23B04 - 35GS(Cys15) - DLLBII129B05
B3: DLLBII136C07 (VHH, not shown: small tags and cut ends)
VHH: EVQLVESGGGLVQPGGSLRLSCAASGFTFGSYDMSWVRRSPGKGPEWVSSINSGGGSTYYADYVKGRFTISRDNAKNTLYLQMNSLKPEDTAVYYCAADRYIWARQGEYWGAYEYDYWGQGTQVTVSS

What was measured:
[1] = molecular target: T1, recombinant human VEGF165 (human, UniProt P15692-4 27-191, biotinylated in the competition assays); assay: AlphaScreen, hVEGF165/hVEGFR2-Fc competition, +5 uM HSA
T1 construct: Bought protein; also called hVEGF165; rhVEGF165
T1 sequence (P15692 other isoform, or with tags, fused parts or gaps): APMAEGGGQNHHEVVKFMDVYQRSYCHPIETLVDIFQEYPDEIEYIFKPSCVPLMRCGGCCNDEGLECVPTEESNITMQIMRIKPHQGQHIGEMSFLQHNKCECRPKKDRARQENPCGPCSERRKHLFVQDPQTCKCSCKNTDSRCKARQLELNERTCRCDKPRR
Procedure: These 2 competition assays are also performed after preincubation of the VHHs with 5 μM human serum albumin.

[2] = molecular target: T2, human DLL4, full length, overexpressed on cells (human, UniProt Q9NR61 27-685); assay: cell-based or functional assay
[3] = molecular target: T3, mouse DLL4, full length, overexpressed on CHO cells (mouse, UniProt Q9JI71 27-686); assay: FMAT, hNotch1-Fc on CHO-mDLL4, +25 uM HSA
T3 construct: whole, on cells; also called mDLL4; CHO-mDLL4
T3 sequence (Q9JI71 27-686): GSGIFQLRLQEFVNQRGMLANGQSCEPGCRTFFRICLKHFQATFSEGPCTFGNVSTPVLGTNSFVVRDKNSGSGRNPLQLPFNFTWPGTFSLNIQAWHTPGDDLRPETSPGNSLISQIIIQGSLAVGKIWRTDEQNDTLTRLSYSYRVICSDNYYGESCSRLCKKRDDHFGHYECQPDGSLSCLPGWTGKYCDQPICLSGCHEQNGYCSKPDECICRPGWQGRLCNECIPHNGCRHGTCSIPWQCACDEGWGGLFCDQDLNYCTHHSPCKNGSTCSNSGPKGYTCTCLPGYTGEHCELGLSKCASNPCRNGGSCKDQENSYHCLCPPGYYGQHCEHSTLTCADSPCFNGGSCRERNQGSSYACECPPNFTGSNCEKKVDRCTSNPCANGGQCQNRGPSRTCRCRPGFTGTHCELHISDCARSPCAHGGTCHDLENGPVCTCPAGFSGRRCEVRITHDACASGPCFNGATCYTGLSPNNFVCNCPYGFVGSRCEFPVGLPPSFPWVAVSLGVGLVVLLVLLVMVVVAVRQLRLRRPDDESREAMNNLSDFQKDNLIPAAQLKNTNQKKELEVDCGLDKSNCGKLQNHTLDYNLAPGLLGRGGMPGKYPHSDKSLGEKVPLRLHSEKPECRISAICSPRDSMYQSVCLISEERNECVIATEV

[4] = molecular target: T1, recombinant human VEGF165; assay: AlphaScreen, hVEGF165/hVEGFR1-Fc competition, -HSA
[5] = molecular target: T3, mouse DLL4, full length, overexpressed …; assay: FMAT, hNotch1-Fc on CHO-mDLL4, -HSA
[6] = molecular target: T1, recombinant human VEGF165; assay: AlphaScreen, hVEGF165/hVEGFR2-Fc competition, -HSA
[7] = molecular target: T2, human DLL4, full length, overexpressed …; assay: FMAT, hNotch1-Fc on CHO-hDLL4, -HSA
[8] = molecular target: T2, human DLL4, full length, overexpressed …; assay: FMAT, hNotch1-Fc on CHO-hDLL4, +25 uM HSA
[9] = molecular target: VEGF (used to stimulate HUVEC cells) (UniProt P15692-4 27-191, limits assumed); assay: cell-based or functional assay
Chain of VEGF (used to stimulate HUVEC cells) (P15692 other isoform, or with tags, fused parts or gaps limits assumed): as the sequence (P15692 other isoform, or with tags, fused parts or gaps) above

Binder | % inh [1] [%] | IC50 [1] [nM] | IC50, DLL4 mediated reporter assay, +HSA [2] [nM] | % inh [3] [%] | IC50 [3] [nM] | % inh [4] [%] | IC50 [4] [nM] | % inh [5] [%] | IC50 [5] [nM] | % inh [6] [%] | IC50 [6] [nM] | % inh [7] [%] | IC50 [7] [nM] | % inh [8] [%] | IC50 [8] [nM] | % inhibition, VEGF HUVEC proliferation assay, -HSA [9] [%] | IC50, VEGF HUVEC proliferation assay, -HSA [9] [nM]
B1 | 100 | 0.22 | 582 | 100 | 103 | 60 | 0.27 | 100 | 95.3 | 100 | 0.19 | 100 | 44.9 | 100 | 41.5 |  | 
B2 | 100 | 0.17 | 98.5 | 100 | 23.8 | 62 | 0.24 | 100 | 19.3 | 100 | 0.18 | 100 | 12.2 | 100 | 12.4 | 92 | 0.73
B3 |  |  | 103 | 100 | 17.6 |  |  | 100 | 16.4 |  |  | 94 | 6.8 | 94 | 7.1 |  | 
